The record followed here is patent US20190324032A1 (University of California, published 2019).

One assay concerns the target T1, CRY1 PHR R109Q (mouse, UniProt P97784 1-491).
T1 construct: also called CRY1 PHR R109Q mutant; not shown: N-terminal His6 tag / vector residues
T1 sequence: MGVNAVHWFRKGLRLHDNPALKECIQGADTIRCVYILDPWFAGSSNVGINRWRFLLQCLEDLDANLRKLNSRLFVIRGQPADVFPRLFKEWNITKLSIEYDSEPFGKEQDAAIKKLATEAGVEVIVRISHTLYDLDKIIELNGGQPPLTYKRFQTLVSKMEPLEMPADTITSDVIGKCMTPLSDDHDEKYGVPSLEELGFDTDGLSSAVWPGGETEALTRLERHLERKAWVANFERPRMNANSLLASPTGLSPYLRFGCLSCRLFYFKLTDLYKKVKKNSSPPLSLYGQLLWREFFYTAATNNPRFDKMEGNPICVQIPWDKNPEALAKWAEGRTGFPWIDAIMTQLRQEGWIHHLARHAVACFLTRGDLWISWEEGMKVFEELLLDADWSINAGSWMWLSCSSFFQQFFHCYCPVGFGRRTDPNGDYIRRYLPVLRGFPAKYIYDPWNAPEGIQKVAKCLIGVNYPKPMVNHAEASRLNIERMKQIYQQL
In words: size exclusion chromatography. As for the experimental part: (§1) For analysis of complex formation by size-exclusion chromatography (SEC), purified proteins were injected on a Superdex 200 10/300 GL or Superdex 75 10/300 GL analytical column at 10-50 μM (˜250 μL, 1:1 molar ratio) in 20 mM HEPES pH 7.5, 125 mM NaCl, 5% glycerol and 2 mM TCEP. Proteins were incubated for ˜30 min. or overnight and analyzed by SEC. All size-exclusion columns were calibrated with a low-molecular-weight gel filtration standards kit (GE Healthcare Life Sciences). The content of each peak was evaluated by SDS-PAGE and Coomassie staining.
On the technique in general: In gel filtration, larger molecules generally elute earlier.

The target in the next assay is T2, CRY1 PHR P39A (mouse, UniProt P97784 1-491).
T2 construct: also called CRY1 PHR P39A mutant; not shown: N-terminal His6 tag / vector residues
T2 sequence: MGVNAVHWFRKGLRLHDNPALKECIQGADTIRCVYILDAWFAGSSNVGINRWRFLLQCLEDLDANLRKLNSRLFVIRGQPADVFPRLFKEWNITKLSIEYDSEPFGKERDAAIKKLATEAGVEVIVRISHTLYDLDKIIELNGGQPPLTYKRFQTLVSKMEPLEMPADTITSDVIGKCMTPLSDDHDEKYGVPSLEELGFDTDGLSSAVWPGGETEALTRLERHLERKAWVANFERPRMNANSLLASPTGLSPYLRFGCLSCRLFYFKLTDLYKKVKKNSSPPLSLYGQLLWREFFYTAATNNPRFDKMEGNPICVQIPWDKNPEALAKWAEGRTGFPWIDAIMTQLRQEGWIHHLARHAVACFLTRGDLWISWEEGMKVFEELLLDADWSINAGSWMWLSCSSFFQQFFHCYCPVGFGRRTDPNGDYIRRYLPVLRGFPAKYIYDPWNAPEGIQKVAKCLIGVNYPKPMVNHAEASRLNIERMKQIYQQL
Kind of assay: size exclusion chromatography. As to the method:
as §1

Assay [1] has as its target T3, His6-tagged mouse CRY1 PHR (photolyase homology region, amino acids 1-491) (mouse, UniProt P97784 1-491).
T3 construct: Expressed in Sf9 cells; also called wild-type CRY1 PHR; not shown: N-terminal His6 tag / vector residues
T3 sequence: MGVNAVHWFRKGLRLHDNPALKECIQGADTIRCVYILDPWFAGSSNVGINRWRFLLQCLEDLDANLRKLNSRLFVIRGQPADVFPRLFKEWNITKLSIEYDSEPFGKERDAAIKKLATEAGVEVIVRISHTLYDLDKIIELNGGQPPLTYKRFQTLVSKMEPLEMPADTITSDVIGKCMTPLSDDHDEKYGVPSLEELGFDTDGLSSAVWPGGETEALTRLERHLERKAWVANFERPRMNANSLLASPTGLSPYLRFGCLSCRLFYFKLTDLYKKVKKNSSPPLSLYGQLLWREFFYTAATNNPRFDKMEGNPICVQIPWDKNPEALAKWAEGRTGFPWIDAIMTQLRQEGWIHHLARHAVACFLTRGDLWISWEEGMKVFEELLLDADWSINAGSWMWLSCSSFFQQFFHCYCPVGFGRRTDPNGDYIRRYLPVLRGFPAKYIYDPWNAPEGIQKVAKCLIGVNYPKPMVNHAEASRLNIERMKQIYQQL
In words: SEC of CRY1 PHR with preformed CLOCK:BMAL1 PAS-B dimer. As to the method:
as §1

Assay [2] deals with T3, His6-tagged mouse CRY1 PHR (photolyase …). In words: size exclusion chromatography. As for the experimental part:
as §1

Assay [3] deals with mouse BMAL1 PAS-B (residues 329-441) (mouse, UniProt Q9WTL8 329-441). Kind of assay: size exclusion chromatography on Superdex 75. As to the method: as §1
Assay [4] addresses T3, His6-tagged mouse CRY1 PHR (photolyase …). Kind of assay: GST pull-down. As for the experimental part:
Soluble proteins were purified using GS4B resin (GE Healthcare). GST-tagged proteins were eluted with 10 mM glutathione and peak elution was desalted into 20 mM HEPES pH 7.5, 125 mM NaCl, 5% glycerol and 2 mM TCEP. […] After rotation at 4° C. overnight, reactions were washed 3 times with the above buffer and eluted with 6× SDS. Samples were boiled for ˜5 min. and loaded on an SDS-PAGE gel for visualization by Coomassie stain.

Assay [5] deals with T4, CLOCK PAS-B domain (residues 261-395) site-specifically labeled with FAM at its N-terminus (human, UniProt O15516 261-395, FAM (fluorescein) at the N-terminus, attached with Sortase A from FAM-LPETGG onto the N-terminal glycine).
T4 construct: Sortase ligation leaves residues of the FAM-LPETGG peptide in front of the N-terminal glycine; also called labeled CLOCK PAS-B; CLOCK PAS-B probe
T4 sequence: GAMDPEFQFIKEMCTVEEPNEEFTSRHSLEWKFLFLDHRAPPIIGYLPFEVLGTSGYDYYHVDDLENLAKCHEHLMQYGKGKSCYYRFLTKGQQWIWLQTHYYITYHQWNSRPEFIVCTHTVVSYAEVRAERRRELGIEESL
In words: fluorescence polarization. A general note: In fluorescence polarisation assays a small probe gives low polarisation when free and higher when bound to something large.

Chain of mouse BMAL1 PAS-B (residues 329-441) (Q9WTL8 329-441): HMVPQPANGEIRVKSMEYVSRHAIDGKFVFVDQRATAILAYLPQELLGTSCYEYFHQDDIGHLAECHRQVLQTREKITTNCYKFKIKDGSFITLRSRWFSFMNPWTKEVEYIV

B1: mouse CLOCK PAS-B (residues 261-395) (other)
chain: QFIKEMCTVEEPNEEFTSRHSLEWKFLFLDHRAPPIIGYLPFEVLGTSGYDYYHVDDLENLAKCHEHLMQYGKGKSCYYRFLTKGQQWIWLQTHYYITYHQWNSRPEFIVCTHTVVSYAEVRAERRRELGIEESL
notes: also called CLOCK PAS-B domain; CLOCK PAS-B WT
In the case of B1, the binding result was “no binding (tested: 10-50 µM, 1:1 molar ratio)” with CRY1 PHR R109Q; “no binding (tested: 10-50 µM, 1:1 molar ratio)” with CRY1 PHR P39A; “binds” in assay [1].

B2: CLOCK PAS-B H360Y (other)
chain: QFIKEMCTVEEPNEEFTSRHSLEWKFLFLDHRAPPIIGYLPFEVLGTSGYDYYHVDDLENLAKCHEHLMQYGKGKSCYYRFLTKGQQWIWLQTHYYITYYQWNSRPEFIVCTHTVVSYAEVRAERRRELGIEESL
notes: also called CLOCK PAS-B H360Y mutant
B2: the binding result in assay [2] is “no binding (tested: 10-50 µM, 1:1 molar ratio)”.

B3: CLOCK PAS-B V315R (other)
chain: QFIKEMCTVEEPNEEFTSRHSLEWKFLFLDHRAPPIIGYLPFEVLGTSGYDYYHRDDLENLAKCHEHLMQYGKGKSCYYRFLTKGQQWIWLQTHYYITYHQWNSRPEFIVCTHTVVSYAEVRAERRRELGIEESL
notes: also called CLOCK PAS-B V315R mutant
As to B3, in assay [3], the binding result is “no binding (tested: incubated 1:1)”.

B4: GST-CLOCK PAS-B W362A (other, not shown: a dimerising Fc or GST; small tags and cut ends)
chain: QFIKEMCTVEEPNEEFTSRHSLEWKFLFLDHRAPPIIGYLPFEVLGTSGYDYYHVDDLENLAKCHEHLMQYGKGKSCYYRFLTKGQQWIWLQTHYYITYHQANSRPEFIVCTHTVVSYAEVRAERRRELGIEESL
Take B4: in assay [4], the binding result is recorded as “no binding”.

B5: CRY1 PHR (residues 1-491) after cleavage of the His6 tag, with residual vector sequence (Example 6) (other)
chain: GAMDPEFMGVNAVHWFRKGLRLHDNPALKECIQGADTIRCVYILDPWFAGSSNVGINRWRFLLQCLEDLDANLRKLNSRLFVIRGQPADVFPRLFKEWNITKLSIEYDSEPFGKERDAAIKKLATEAGVEVIVRISHTLYDLDKIIELNGGQPPLTYKRFQTLVSKMEPLEMPADTITSDVIGKCMTPLSDDHDEKYGVPSLEELGFDTDGLSSAVWPGGETEALTRLERHLERKAWVANFERPRMNANSLLASPTGLSPYLRFGCLSCRLFYFKLTDLYKKVKKNSSPPLSLYGQLLWREFFYTAATNNPRFDKMEGNPICVQIPWDKNPEALAKWAEGRTGFPWIDAIMTQLRQEGWIHHLARHAVACFLTRGDLWISWEEGMKVFEELLLDADWSINAGSWMWLSCSSFFQQFFHCYCPVGFGRRTDPNGDYIRRYLPVLRGFPAKYIYDPWNAPEGIQKVAKCLIGVNYPKPMVNHAEASRLNIERMKQIYQQL
For the molecule B5, in assay [5], the binding result is “binds”.
